Measured values reported in US20170267761A1.

Target: Sortilin SORTECD_HIS (human) (UniProt Q99523)
Experiment: HTRF, displacement of PGRN from His-tagged Sortilin ECD

Sortilin SORTECD_HIS (human), sequence (Q99523 other isoform, or with tags, fused parts or gaps limits assumed): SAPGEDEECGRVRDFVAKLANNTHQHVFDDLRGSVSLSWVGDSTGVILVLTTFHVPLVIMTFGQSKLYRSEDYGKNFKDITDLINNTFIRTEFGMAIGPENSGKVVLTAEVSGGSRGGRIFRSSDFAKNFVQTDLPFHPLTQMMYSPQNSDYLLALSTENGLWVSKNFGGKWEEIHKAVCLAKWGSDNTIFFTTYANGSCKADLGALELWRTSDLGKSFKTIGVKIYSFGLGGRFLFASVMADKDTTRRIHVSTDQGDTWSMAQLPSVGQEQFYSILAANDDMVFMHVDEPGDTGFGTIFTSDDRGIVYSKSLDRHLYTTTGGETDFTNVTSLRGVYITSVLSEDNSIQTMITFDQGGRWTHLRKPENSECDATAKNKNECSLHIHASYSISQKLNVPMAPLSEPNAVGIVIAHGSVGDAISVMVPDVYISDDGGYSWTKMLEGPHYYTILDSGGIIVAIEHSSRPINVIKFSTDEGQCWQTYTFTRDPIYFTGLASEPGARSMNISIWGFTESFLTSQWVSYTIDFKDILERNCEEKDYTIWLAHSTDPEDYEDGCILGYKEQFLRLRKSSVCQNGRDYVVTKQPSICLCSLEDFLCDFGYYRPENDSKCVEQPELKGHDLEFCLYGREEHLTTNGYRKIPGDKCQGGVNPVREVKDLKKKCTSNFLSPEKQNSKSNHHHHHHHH

% inh highest conc: 37%
% inhibition at 1 µM: 37%
Substance: IgG1-b12 (antibody)
